# Test results published in the supplement of paper PMC12042874.
# ± gives the uncertainty stated by the source.
# Test: amyloid nucleation score (Sup35N fusion, yeast selection) (log enrichment); library NNK3; higher = more nucleation; inactive = no reads after selection
# Outline: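 Sup35N fusions to peptides of 20 random codons were expressed in psi-negative yeast, induced 24 hours with 100 μM copper sulfate, and grown 7 days at 30°C on medium lacking adenine and uracil. Input and output plasmid inserts were sequenced by Illumina. The nucleation score is the DiMSum log enrichment of output over input reads, centred on the mode score of non-aggregating sequences. Sequences with under 100 input reads were excluded.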
row,Substance,amyloid nucleation score
1,CCVSVKYWYYV,2.18 ± 0.058
2,IVVCRKEDSAQRFSFVRLSD,inactive
3,HSTGFPCLLVKITGLRHRLG,inactive
4,TTELVF,inactive
5,IRNSVLWGHFIR,inactive
6,YDMSDMNCRRIW,inactive
7,WYRYSGGYNWP,0.396 ± 0.29
8,CGGIAFRNFLMNSGMPLEWK,inactive
9,VFICSAVTNNSWCERLDFSA,1.5 ± 0.14
10,YETYKYLYGFVML,inactive
11,KYSTSPNFKIIQVLMGLPLR,inactive
12,GASCLCWNYRDRLRTEVRYY,inactive
13,HSYHPMPWTVNLGCHFGGYC,2.38 ± 0.068
14,LKRNVNYVNLNVFRLFLK,inactive
15,FVPRPISNSAGIP,inactive
16,GHVSHYVVVLHLTSIGSCGL,0.696 ± 0.23
17,KSGYCNKCMNGFSGTLTSNY,inactive
18,MVVMRKSVETTYYWLILAIF,inactive
19,QLGLIVRNSCLSSIVVKGML,-0.06 ± 0.54
20,SNVPYKDLQTLWCSHPVSVV,inactive
21,NFLWYCV,1.75 ± 0.089
22,SGTPVPAYSTSWQQNWVKQC,inactive
23,YLRDF,inactive

row,Substance,amyloid nucleation score
1,MVSGH,inactive
2,GGLEVMSLITT,inactive
3,TGVKQCSTFTVFIFAGPVEI,1.74 ± 0.1
4,TNLLRTGNASSWMFKRGVEC,inactive
5,KCPRVDSA,inactive
6,DGNFNQRYAHLDRSGCWL,inactive
7,SYFGRLIQSLTRQWTTVARS,inactive
8,YVYSVFFYRWW,inactive
9,SGFKG,inactive
10,NGILKPETVRQI,inactive
11,IITPELYGKLRLHH,inactive
12,RKYSVG,inactive
13,LFTDPCCTIGMSFRV,1.08 ± 0.075
14,RIHDNVPSIVWFWEPPHPRH,inactive
15,QCPKCDLLMRDSDIRFTHAG,inactive
16,SYNFRDCYQCLRDKVDKICA,inactive
17,NQGWTCWCVSCCLGVKIVMI,inactive
18,IIFQTVR,inactive
19,VGKFSHACLRIN,inactive
20,TCAVKMVRSWCNIPINSFQA,inactive
21,VYVSYGTFWMSKVWWCDKPG,inactive
22,CVGMEVCGWEGS,inactive
23,TGKYRAVVLAC,inactive

row,Substance,amyloid nucleation score
1,LYFILLAHLFSCNNPVSKDP,1.4 ± 0.13
2,TFKPDQYRFVHEYSTMRVLM,inactive
3,INWAKHDWGFNYFSCSICWV,1.39 ± 0.079
4,AWRRSSEGYRFGNDYVTRAT,inactive
5,FGQYSGVSCNWTPGCPAPCF,inactive
6,KNDSVKSKCVSIGVPVPLLV,inactive
7,FACAFKSSCLNHLCSAVW,0.757 ± 0.17
8,HKPCRCKTMLWDLAIVGSLE,inactive
9,SGLYMCRISFSPLIVMIVYG,1.3 ± 0.096
10,MVRNRNYSLIYGWVPIQDEE,1.82 ± 0.099
11,MSKHRMFLSGRLFRANEVRP,inactive
12,ADWRIKFYGCGDLGLFWES,inactive
13,QSYVRQF,inactive
14,SQITRMTPPVSIAADSRFVE,inactive
15,FFSCYVESNSVMGKDFCRVM,0.788 ± 0.12
16,NGTNPSYNKNCFSVFVESFN,inactive
17,FVMRYRVVYSDRCFELGWHA,-0.567 ± 0.76
18,LYKGYYVLMLEWARDKIHSA,inactive
19,FYNDWRVFRVGCSLGRDQSN,inactive
20,NKWYSNLQNCCCSLNHTGEG,0.624 ± 0.23
21,YVRIWSFMNYAVMVSITLIV,inactive
22,KYVYYSFLERSFDYMYFSRQ,inactive
23,VLLMLLTV,inactive

row,Substance,amyloid nucleation score
1,SFSWLTFPRGSDNFQDWHCI,0.56 ± 0.31
2,FYWGACSIHLFKL,inactive
3,WEWVRPFFLLGYAPEPNITI,0.232 ± 0.48
4,ARRDLFHWCRRQSCVYN,-0.275 ± 1.1
5,TPLGLEWYSSREWGISNLWT,inactive
6,CPIWKDRDCFLLSIKYYALQ,-0.24 ± 0.31
7,FAQYYDSVPIDEDTIQIVHI,inactive
8,LQVARIMVSWIDQCGENRTD,inactive
9,WAVCKAHDVSVDTDYYSSTG,0.302 ± 0.45
10,DSVKSALRRGI,-0.166 ± 0.9
11,MAIFKLFVPFIFLIEFCYMV,inactive
12,KRDTSWLPVCNSGLSQCRKR,inactive
13,SSVVGMSGLG,inactive
14,IGCCFSVLKNLLFSFDVKQF,inactive
15,NWGVYCVRDLWYRHSDMYHR,inactive
16,VNSLNHYYLIPCARFEPEG,inactive
17,SCLWGKRLMFWCE,-0.528 ± 0.77
18,VVCFFYNVF,2.36 ± 0.055
19,VFYSLMILSLLNSRRDGLHQ,0.429 ± 0.48
20,RKMMCKWLCNIKGYIIVV,inactive
21,WQVVGYKNLDLCVNLATTDW,inactive
22,GRIGTVGWGISLHYVYTDRA,0.547 ± 0.2
23,RKLLCWTRDGRIWMRVEGTA,inactive

row,Substance,amyloid nucleation score
1,KSRERFLCSKGMSPQQTHMY,inactive
2,QNCIHKRRSLGSTCATEWDV,-0.399 ± 1
3,LKRCRLQMAGYELSWDQGTM,inactive
4,NFPNPVVSNLRAYFMD,-0.371 ± 0.96
5,TFCGFKP,inactive
6,HTDIMIWFRSCYYFLSFFMY,inactive
7,VGSLIGMNYGF,inactive
8,WTMSKLNGRCTSCPHLARLS,inactive
9,RDFAR,inactive
10,LQRVFLENRTSVYSVTG,inactive
11,IVPSNSARLLSVKALDLPIS,inactive
12,SFDFHRVMIPRDRPDYHPSM,inactive
13,CRYSSYVPVGLYKKWGICWM,inactive
14,LPVPGTPLKKAVGGIIRGCG,inactive
15,WIIEGSRLRC,inactive
16,TSGQSVVSSRTHCVIRCRRR,inactive
17,RIRCVMFGGRKSRRKLDSVV,inactive
18,SNCRCIEGVFYHTYNQKAVR,inactive
19,KVAILVHILNNLVRVRVCFN,inactive
20,GTIYMFENGSSVS,inactive
21,YLASEVYRV,inactive
22,STSSLASNYRDFSIR,inactive
23,ASSRSHPV,inactive

row,Substance,amyloid nucleation score
1,AIYLSFRGNA,1.65 ± 0.071
2,CDVVSSDMVFDLS,inactive
3,CANNYGGMLRECQVSGYSCM,inactive
4,ARFMC,inactive
5,TLSYVCTNAGGSVFMTCLFF,-0.104 ± 0.58
6,FVTQFVEN,inactive
7,IDSCLQNSP,inactive
8,SSHLVWCYDANNHWADHK,inactive
9,VDNSERLSLHPSVHMGDMGF,inactive
10,LFCLLLHNIGKFRYMFY,inactive
11,TSLLAELLVWWE,inactive
12,RDDFYLNFNFNFVRHGTRDS,1.26 ± 0.15
13,RCFGKIC,inactive
14,HIINCFIFLNVTDYTIVFLL,2.21 ± 0.074
15,SSPDCNYNECVPGACERRGF,inactive
16,LSEIGIPVAVSFKPADSLGL,inactive
17,AFVNLYGKSARQSRQPMA,inactive
18,FVGSLDFNGVSEGFVASHCI,inactive
19,NAQWLYCINSD,inactive
20,LAYVHMGGIARWLC,inactive
21,MSKDFSRGVQLTDRCLLC,inactive
22,KDIYYTSFILPDEWITG,inactive
23,GGKVSERRYVDLCRLPSVAP,inactive

row,Substance,amyloid nucleation score
1,YAWGYSSWETRN,inactive
2,ACNSPEVLQNLQRLRSCGRR,inactive
3,LFMINLDPASMVHMTPCFTN,inactive
4,NPLFMQSLKLRCCRNLRFRS,inactive
5,GGNGKAWHVGTVIMCRKLRV,2.5 ± 0.078
6,FLIYAQALLF,inactive
7,SRSSCRVIPT,inactive
8,YLYLWSFCMSMVGFSIYRES,inactive
9,FRVNKYNISFLVRQSGIWLA,inactive
10,GIRLIECS,inactive
11,LMSSGVGLPFSDTSAWLIVW,inactive
12,QFSMLMVVLCP,inactive
13,SLMNPNFFLHMVIRTNCYLK,inactive
14,LNIRGSFCFYGSWIVADFHM,0.336 ± 0.38
15,NTSYLDASSNGNQRCIHSHK,inactive
16,HMTGARRN,inactive
17,IKYFAIVSVCGFVA,1.23 ± 0.13
18,NSMSKVKMLVRSISTIEEVK,inactive
19,RAFMVSVSHCRMCWIWC,inactive
20,VVRFLDQKMYVVGLLSGS,inactive
21,CVSGASKVNWGSCY,inactive
